B1: library; numbered along this chain (parent)
chain: MAAAGGARLLRAASAVLGGPAGRWLHHAGSRAGSSGLLRNRGPGGSAEASRSLSVSARARSSSEDKITVHFINRDGETLTTKGKVGDSLLDVVVENNLDIDGFGACEGTLACSTCHLIFEDHIYEKLDAITDEENDMLDLAYGLTDRSRLGCQICLTKSMDNMTVRVPETVADARQSIDVGKTS

Variants of: B1
Experiment: scaled log2 fold change in cell abundance, elesclomol vs control (0 = silent mean, 1 = nonsense mean) (scaled log2 ratio); higher = higher viability under elesclomol (loss of FDX1 cuproptosis function)
Conditions: glucose 10 mM
Procedure: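 Deep mutational scan of full-length human FDX1: a pooled saturation-mutagenesis ORF library (every residue 2-184 mutated to all 19 amino acids plus stop, and silent codons where available) was expressed by lentivirus in FDX1-knockout ABC1 (14 days) or HEK293T (11 days) cells grown with elesclomol (ES) or DMSO control. Variant abundance came from ORF sequencing. The log2 fold change (ES vs control, mean of duplicates) was centred on the silent-variant mean (0) and scaled to the nonsense-variant mean (1). Higher values mean greater viability under ES, i.e. loss of FDX1 function in cuproptosis.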

[1] = with ABC1 FDX1 KO, elesclomol 5 nM, 14 days
[2] = with HEK293T FDX1 KO, elesclomol 40 nM, 11 days
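Note: variant abundance is its share of total variant reads in each endpoint sample, from next-generation sequencing of the integrated ORF PCR-amplified out of genomic DNA.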

Variant | scaled log2 fold change [1] | scaled log2 fold change [2]
I72Q | -0.00335 | 0.0078
I72S | -0.00568 | 0.815
I72K | 0.155 | -0.273
I72C | 0.238 | -0.937
I72P | 0.991 | 1.28
I72D | 0.34 | -0.132
I72W | 0.00502 | 1.02
I72M | -0.0135 | 0.0709
I72A | 0.0764 | -0.682
I72V | -0.116 | -1.01
H70Q | 0.0254 | -0.0243
H70K | -0.215 | 0.573
H70A | 0.42 | -0.104
H70Y | 0.0486 | –
H70E | 0.148 | 0.829
H70M | -0.0655 | 0.0916
H70W | -0.0809 | -0.922
H70V | 0.191 | -1.13
H70L | -0.219 | -0.612
H70I | 0.093 | -0.0895
H70N | 0.0583 | -0.00885
H70D | 0.33 | 1.31
H70T | -0.764 | –
H70R | -0.349 | -0.0802
H70F | 0.152 | 0.385

Variant | scaled log2 fold change [1] | scaled log2 fold change [2]
H70C | 0.396 | –
H70G | 0.373 | 1.09
H70P | 0.933 | 0.983
H70S | 0.277 | -0.697
G76C | 0.377 | 0.277
G76Y | -0.241 | 0.296
G76E | -0.688 | 0.0105
G76M | 0.321 | -0.269
G76D | 0.21 | 1.47
G76S | 0.164 | –
G76I | 0.0447 | -0.0276
G76K | -0.353 | -0.04
G76A | -0.303 | -0.122
G76F | -0.264 | -0.273
G76P | 0.585 | 0.000649
G76V | 0.401 | -0.808
G76N | -0.0936 | -0.272
G76L | 0.0165 | -0.41
G76H | 0.293 | -0.385
G76R | -0.0307 | –
G76T | 0.217 | –
R74I | -0.228 | 1.14
R74P | 0.11 | –
R74D | 0.558 | 1.28
R74H | -0.0392 | -0.565

Variant | scaled log2 fold change [1] | scaled log2 fold change [2]
R74Y | -0.0737 | 0.186
R74M | -0.486 | 0.445
R74A | -0.255 | -0.8
R74T | -0.0213 | -0.108
R74G | 0.597 | -0.839
R74L | 0.361 | -0.577
R74Q | 0.323 | -0.599
R74S | 0.363 | 0.881
R74W | 0.234 | –
R74E | -0.261 | –
R74F | 0.533 | -0.0248
R74C | 0.324 | 0.937
R74N | -1.08 | 1.31
R74V | 0.486 | –
D75Q | 0.457 | –
D75Y | -0.306 | –
D75M | -0.0398 | -0.59
D75F | -0.548 | 0.355
D75V | -0.11 | -0.372
D75K | -0.678 | –
D75L | 0.0705 | -0.00446
D75E | 0.271 | 0.128
D75A | -0.423 | 0.113
D75T | -0.752 | 0.0498
D75W | 0.241 | -0.146

Variant | scaled log2 fold change [1] | scaled log2 fold change [2]
D75N | -0.329 | 0.364
D75R | -0.271 | -0.0753
D75S | -0.0315 | –
D75H | 0.273 | –
D75I | -0.502 | -0.38
D75C | -0.0427 | -0.175
E77G | 0.311 | -0.306
E77N | 0.0389 | -0.504
E77H | -0.0496 | -0.0091
E77F | -0.642 | 0.94
E77Y | 0.514 | -0.542
E77V | -0.145 | -0.226
E77K | 0.242 | -0.341
E77P | 0.108 | –
E77I | -0.922 | -0.714
E77T | -1.24 | -0.154
E77R | -0.178 | -0.307
E77C | -0.00193 | -0.0101
E77A | 0.306 | 1.06
E77M | -0.575 | -0.139
E77W | 0.139 | 0.815
E77S | -0.974 | 0.00555
E77D | -0.61 | -0.9
E77L | 0.262 | 0.144
E77Q | -0.0695 | 0.00586

Variant | scaled log2 fold change [1] | scaled log2 fold change [2]
T78E | 0.171 | 2.14
T78D | 0.00307 | -0.427
T78C | -0.0788 | –
V69N | 1.01 | 0.921
V69D | 1.04 | 1.26
V69T | 0.119 | 0.953
V69R | 1.13 | 0.458
V69Q | 1.14 | 0.294
V69H | 1.16 | 1.1
V69A | 0.0154 | 0.807
V69I | -0.0537 | -0.536
V69C | 0.189 | 0.782
V69Y | 1.05 | 1.86
V69M | 0.273 | -0.0634
V69K | 1.22 | 1.85
V69G | 1.19 | 1.06
V69S | 0.684 | 0.329
V69W | 0.674 | 0.931
V69E | 1.06 | 1.55
V69P | 1.29 | 0.484
V69L | -0.537 | -0.407
V69F | -0.809 | -0.24

— the supplement of paper PMC12855868
